Laboratory results as given in publication PMC3510490, “Structure of Actin-related protein 8 and its contribution to nucleosome binding” (Nucleic Acids Research, 2012).

Assays:
[1] = tested on: Human Arp8 full-length (Homo sapiens); assay: fluorescence titration; settings: 20 mM Tris pH 7.5, 150 mM KCl, 5% glycerol, 1 mM TCEP, 0.01% CHAPS, 0.01% octylglucoside, room temperature 20-30 min, labelled species 0.5-1 nM, protein …
[2] = tested on: Yeast Arp8;Yeast Arp4;Actin (INO80 sub-complex I);Ino80 HSA domain (INO80 sub-complex I) (Saccharomyces cerevisiae;Saccharomyces cerevisiae;Saccharomyces cerevisiae;Saccharomyces cerevisiae); assay: fluorescence titration; settings: 20 mM Tris pH 7.5, 150 mM KCl, 5% glycerol, 1 mM TCEP, 0.01% CHAPS, 0.01% octylglucoside, room temperature 20-30 min, labelled species 0.5-1 nM, protein …
[3] = tested on: Yeast Arp8 (Saccharomyces cerevisiae); assay: fluorescence titration; settings: 20 mM Tris pH 7.5, 150 mM KCl, 5% glycerol, 1 mM TCEP, 0.01% CHAPS, 0.01% octylglucoside, room temperature 20-30 min, labelled species 0.5-1 nM, protein …
[4] = tested on: Human Arp8 (Δ1-33) (Homo sapiens); assay: fluorescence titration; settings: 20 mM Tris pH 7.5, 150 mM KCl, 5% glycerol, 1 mM TCEP, 0.01% CHAPS, 0.01% octylglucoside, room temperature 20-30 min, labelled species 0.5-1 nM, protein …
[5] = tested on: Yeast Arp4 (Saccharomyces cerevisiae); assay: fluorescence titration; settings: 20 mM Tris pH 7.5, 150 mM KCl, 5% glycerol, 1 mM TCEP, 0.01% CHAPS, 0.01% octylglucoside; room temperature 20-30 min; labelled species 0.5-1 nM, protein …
[6] = target: H2A–H2B dimer (Xenopus laevis) (UniProt P06897); assay: other fluorescence titration; Arp constructs or sub-complex titrated (1 to 5000 nM) into fluorescently labelled histone complexes or nucleosomes kept at 0.5-1 nM, 40 µl in microplates; 20 mM Tris pH 7.5, 150 mM KCl, 5% glycerol, 1 mM TCEP, 0.01% CHAPS, 0.01% octylglucoside; room temperature, 20-30 min; apparent Kd and Hill coefficient from non-linear fit; quadruplicates
[7] = target: 207-bp nucleosome (Xenopus laevis); assay: as above

Full-length Homo sapiens Arp8, sequence (Q9H981 whole entry): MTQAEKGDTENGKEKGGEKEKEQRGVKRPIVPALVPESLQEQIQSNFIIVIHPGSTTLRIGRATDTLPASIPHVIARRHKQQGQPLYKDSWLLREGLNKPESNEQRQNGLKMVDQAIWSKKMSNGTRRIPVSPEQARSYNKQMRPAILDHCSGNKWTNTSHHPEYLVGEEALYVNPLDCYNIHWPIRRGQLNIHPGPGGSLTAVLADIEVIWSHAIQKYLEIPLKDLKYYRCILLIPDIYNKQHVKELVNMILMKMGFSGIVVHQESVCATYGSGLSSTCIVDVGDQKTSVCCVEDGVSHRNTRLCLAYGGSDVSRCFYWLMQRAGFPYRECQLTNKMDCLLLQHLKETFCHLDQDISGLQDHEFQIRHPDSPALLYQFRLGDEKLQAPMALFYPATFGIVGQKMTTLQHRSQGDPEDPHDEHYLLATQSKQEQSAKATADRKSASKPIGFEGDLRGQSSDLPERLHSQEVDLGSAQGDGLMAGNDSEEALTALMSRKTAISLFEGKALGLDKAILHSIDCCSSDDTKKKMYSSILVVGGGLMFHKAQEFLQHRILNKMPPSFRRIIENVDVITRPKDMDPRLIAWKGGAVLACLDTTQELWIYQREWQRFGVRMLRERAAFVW
Homo sapiens Arp8 (Δ1–33), sequence (Q9H981 34-624, stated change not applied): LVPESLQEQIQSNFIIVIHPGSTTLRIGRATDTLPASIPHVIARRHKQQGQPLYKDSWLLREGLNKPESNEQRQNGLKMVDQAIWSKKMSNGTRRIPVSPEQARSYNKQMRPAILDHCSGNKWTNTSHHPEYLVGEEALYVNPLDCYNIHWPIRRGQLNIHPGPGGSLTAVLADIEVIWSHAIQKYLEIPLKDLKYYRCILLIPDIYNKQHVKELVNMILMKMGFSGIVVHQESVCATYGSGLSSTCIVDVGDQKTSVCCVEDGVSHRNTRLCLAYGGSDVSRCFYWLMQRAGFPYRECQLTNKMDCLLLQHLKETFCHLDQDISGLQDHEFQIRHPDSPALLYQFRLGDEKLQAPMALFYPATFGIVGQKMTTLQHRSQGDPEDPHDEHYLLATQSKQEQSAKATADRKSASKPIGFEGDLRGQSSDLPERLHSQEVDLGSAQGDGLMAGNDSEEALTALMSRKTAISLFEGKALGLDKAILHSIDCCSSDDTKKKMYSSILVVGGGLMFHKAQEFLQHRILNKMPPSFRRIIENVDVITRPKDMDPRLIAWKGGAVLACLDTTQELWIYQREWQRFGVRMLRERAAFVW

Substance	Kd [6] [nM]	Kd [7] [nM]	further results
30-bp DNA ('601' sequence linker DNA)			Kd ([1]; 5' C6 amine): 6940 nM; Kd ([2]; 5' C6 amine): 366 nM; Kd ([3]; 5' C6 amine): 1920 nM; Kd ([4]; 5' C6 amine): 6330 nM
207-bp nucleosome			Kd [1]: 51 nM; Kd [2]: 63.6 nM; Kd [3]: 314 nM; Kd [4]: 62.6 nM; Kd [5]: 204 nM
Full-length Homo sapiens Arp8 (from UniProt Q9H981 1-624) (natural protein)	555	51	
Homo sapiens Arp8 (Δ1–33) (from UniProt Q9H981 34-624) (domain or fragment)	367	62.6	
Saccharomyces cerevisiae Arp4 (from UniProt P80428 1-489) (natural protein)		204	
Saccharomyces cerevisiae Arp8 (from UniProt Q12386 1-881) (natural protein)	1950	314	
Saccharomyces cerevisiae INO80 sub-complex I (Arp8–Arp4–actin-HSA) (from UniProt Q12386 1-881; P80428 1-489; P60010 1-375; P53115 462-685)	853	63.6	
